Experimental data taken from US20260242478A1 (published 2026).
Where no end group is shown, it is not given here.

Key:
PSMA Fab [1] = target: T1, PSMA Fab; assay: clonal phage ELISA on biotinylated PSMA Fab captured on neutravidin plates, anti-M13 HRP detection;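 further: crude clonal phage supernatants tested, before phage were added, wells were pretreated with PSMA antigen in blocking buffer or with blocking buffer only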
T1 construct: In the phage ELISA the PSMA Fab was biotinylated and captured on neutravidin coated plates; also called Anti-PSMA Fab; 006 PSMA Fab
Method: (§1) Clonal phage were harvested as crude supernatants and screened via standard ELISAs. […] Prior to the addition of clonal phage. wells were incubated with blocking buffer and PSMA antigen or blocking buffer alone. Without washing or aspirating, clonal phage supernatants were then added to the wells and incubated for a short time. Wells were then washed followed by detection of bound phage using a horse radish conjugated anti-M13 antibody.

PSMA Fab [2] = target: T2, PSMA Fab; assay: phage ELISA, clonal phage on biotinylated PSMA Fab captured on neutravidin plate, anti-M13 HRP detection;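 further: crude clonal phage supernatants added to wells preincubated with PSMA antigen in blocking buffer or with blocking buffer only, giving a competition and a no-competitor control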
T2 construct: In the phage ELISA the PSMA Fab was biotinylated and captured on neutravidin coated plates; also called anti-PSMA Fab; 006 PSMA Fab
Method: as §1

PSMA Fab [3] = target: T2, PSMA Fab; assay: phage ELISA, clonal phage on captured PSMA Fab pre-incubated with PSMA antigen as competitor, anti-M13 HRP detection
Method: as §1

PSMA Fab [4] = target: T3, PSMA Fab (biotinylated (site not stated)); assay: clonal phage ELISA; biotinylated PSMA Fab on neutravidin plate, blocking buffer alone; anti-M13 HRP detection;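 further: crude clonal phage supernatants added without washing to wells pretreated with blocking buffer with or without PSMA antigen, short incubation, then washed before detecting bound phage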
T3 construct: The panning ELISA names only 'biotinylated PSMA Fab' captured on neutravidin coated plates; also called Anti-PSMA Fab; 006 PSMA Fab

PSMA Fab [5] = target: T3, PSMA Fab; assay: clonal phage ELISA; biotinylated PSMA Fab on neutravidin plate, wells pre-incubated with PSMA antigen as competitor; anti-M13 HRP detection;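 further: crude clonal phage supernatants added to antigen-treated wells without a wash, incubated briefly, then bound phage read out via horse radish–conjugated anti-M13 antibody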
Method: as §1

| Binder | Phage binding ELISA signal, Anti-PSMA Fab (PSMA Fab [1]) | Phage binding ELISA signal, Anti-PSMA Fab (PSMA Fab [2]) | Phage binding ELISA signal, Anti-PSMA Fab in presence of PSMA (PSMA Fab [3]) | also measured |
| --- | --- | --- | --- | --- |
| EHYACKPEWMCAGF (cysteine pairing not given here; also: fused to pIII of bacteriophage) [Phage-3304] | 1.87 |  |  |  |
| MPPVCIPRWMCEGF [Phage-3301] | 1.88 |  |  |  |
| IELMCRPLWMCMGF [Phage-3398] |  | 1.8 | 0.0966 |  |
| HSALCIPSWMCQGF [Phage-3305] | 1.87 |  |  |  |
| GWPVCVPPWMCDGF [Phage-3303] | 1.87 |  |  |  |
| MLLQCKPSWMCAGF [Phage-3302] | 1.87 |  |  |  |
| TEVMCRPLWMCAGF [Phage-3295] | 1.89 |  |  |  |
| VVIQCQPAWMCDGF [Phage-3296] | 1.88 |  |  |  |
| ENHYCRPAWMCNGF [Phage-3393] |  | 1.8 | 0.106 |  |
| ETFKCVPEWMCTGL [Phage-3298] | 1.88 |  |  |  |
| VESMCKPAWMCIGF [Phage-3300] | 1.88 |  |  |  |
| HDAMCKPAWMCAGF [Phage-3299] | 1.88 |  |  |  |
| GFPWCEPQWMCIGF [Phage-3396] |  | 1.8 | 0.114 |  |
| TQALCKPAWMCKGF [Phage-3399] |  | 1.8 | 0.0703 |  |
| ITVICKPAWMCEFL [Phage-3394] |  | 1.8 | 0.0613 |  |
| WEHRCTPEWMCTGF (also called Peptide-180 library clone) [Phage-3238] |  |  |  | Phage binding ELISA signal, Anti-PSMA Fab (PSMA Fab [4]): 1.94; Phage binding ELISA signal, Anti-PSMA Fab with PSMA antigen (PSMA Fab [5]): 0.0937 |
| FGIYCVPEWMCTGL [Phage-3397] |  | 1.8 | 0.0891 |  |
| VAVMCRPAWMCYGF [Phage-3297] | 1.88 |  |  |  |
| VDRFCEPIWMCIGF [Phage-3306] | 1.87 |  |  |  |
| EMFRCTPEWMCAGL (cysteine pairing not given here; also: fused to pIII of bacteriophage) [Phage-3307] | 1.87 |  |  |  |
| ASVLCVPAWMCSGF [Phage-3395] |  | 1.8 | 0.0808 |  |
| TEILCVPEWMCIGL [Phage-3392] |  | 1.8 | 0.0705 |  |
